Results taken from patent publication US11872270B2, “A*03 restricted peptides for use in immunotherapy against cancers and related methods” (Immatics Biotechnologies GmbH, priority 2018, dated 2024).

target: HLA-A*03:01 (Homo sapiens, UniProt P04439); experiment: MHC binding assay (UV-ligand exchange, β2m ELISA); details: not given
From the text: Candidate peptides for T cell based therapies according to the present invention were further tested for their MHC binding capacity (affinity). The individual peptide-MHC complexes were produced by UV-ligand exchange, where a UV-sensitive peptide is cleaved upon UV-irradiation and exchanged with the peptide of interest as analyzed. Only peptide candidates that can effectively bind and stabilize the peptide-receptive MHC molecules prevent dissociation of the MHC complexes. To determine the yield of the exchange reaction, an ELISA was performed based on the detection of the light chain (β2m) of stabilized MHC complexes. The assay was performed as generally described in Rodenko et al. (Rodenko et al., 2006) 96 well MAXISorp plates (NUNC) were coated over night with 2 ug/ml streptavidin in PBS at room temperature, washed 4× and blocked for 1 h at 37° C. in 2% BSA containing blocking buffer. Refolded HLA-A*02:01/MLA-001 monomers served as standards, covering the range of 15-500 ng/ml. Peptide-MHC monomers of the UV-exchange reaction were diluted 100-fold in blocking buffer. Samples were incubated for 1 h at 37° C., washed four times, incubated with 2 ug/ml HRP conjugated anti-β2m for 1 h at 37° C., washed again and detected with TMB solution that is stopped with […]. Absorption was measured at 450 nm. Candidate peptides that show a high exchange yield (preferably higher than 50%, most preferred higher than 75%) are generally preferred for a generation and production of antibodies or fragments thereof, and/or T cell receptors or fragments thereof, as they show sufficient avidity to the MHC molecules and prevent dissociation of the MHC complexes.

Substance	binding to HLA-A*03
RLPLRVVKH (listed as Homo sapiens) [SEQ ID NO: 271]	binds to HLA-A*03

same assay, conditions: binding to HLA-A*03:01, UV-ligand exchange, β2m ELISA

Substance	Peptide exchange (MHC class I binding score, peptide exchange yield)
32 (LLDAEPPILY; listed as Homo sapiens) [compound 32]	+ (>10% = +)
35 (VLLLLSLLH; listed as Homo sapiens) [compound 35]	++ (>20% = ++)
190 (RSKWSNVFK; listed as Homo sapiens) [compound 190]	++++ (>75% = ++++)
41 (RLGAARGQLR; listed as Homo sapiens) [compound 41]	++ (>20% = ++)
97 (RVRALGSQY; listed as Homo sapiens) [compound 97]	++++ (>75% = ++++)
142 (SPRVYWLGLNDR; listed as Homo sapiens) [compound 142]	+ (>10% = +)
153 (LASSPAGHK; listed as Homo sapiens) [compound 153]	+++ (>50 = +++)
145 (SLFEGIYTIK; listed as Homo sapiens) [compound 145]	++++ (>75% = ++++)
158 (RALGVPFVPR; listed as Homo sapiens) [compound 158]	++++ (>75% = ++++)
103 (SIYKKAVYR; listed as Homo sapiens) [compound 103]	++++ (>75% = ++++)
181 (RVAEEILIK; listed as Homo sapiens) [compound 181]	+++ (>50 = +++)
27 (SGSTLECILYK; listed as Homo sapiens) [compound 27]	++++ (>75% = ++++)
49 (ITAPLMPLGK; listed as Homo sapiens) [compound 49]	++++ (>75% = ++++)
215 (KIWQNLRLK; listed as Homo sapiens) [compound 215]	+++ (>50 = +++)
85 (IMPTFDLTK; listed as Homo sapiens) [compound 85]	+ (>10% = +)
28 (STLECILYK; listed as Homo sapiens) [compound 28]	++++ (>75% = ++++)
30 (ILDSSLLK; listed as Homo sapiens) [compound 30]	++ (>20% = ++)
160 (RLLPGKVVWK; listed as Homo sapiens) [compound 160]	++++ (>75% = ++++)
129 (ALARVSSVKL; listed as Homo sapiens) [compound 129]	+++ (>50 = +++)

Substance	Peptide exchange (MHC class I binding score, peptide exchange yield)
271 (RLPLRVVKH; listed as Homo sapiens) [compound 271]	++++ (>75% = ++++)
36 (QIRAELMKK; listed as Homo sapiens) [compound 36]	++++ (>75% = ++++)
91 (IMKRQVKCITK; listed as Homo sapiens) [compound 91]	+ (>10% = +)
104 (AVVQGLVEK; listed as Homo sapiens) [compound 104]	++ (>20% = ++)
179 (KINPTASLK; listed as Homo sapiens) [compound 179]	+++ (>50 = +++)
84 (QLYSPPSPSYR; listed as Homo sapiens) [compound 84]	++++ (>75% = ++++)
61 (SLYDSEPRKK; listed as Homo sapiens) [compound 61]	++++ (>75% = ++++)
220 (ALPRQAFHSK; listed as Homo sapiens) [compound 220]	++++ (>75% = ++++)
122 (LIGPLLICK; listed as Homo sapiens) [compound 122]	++++ (>75% = ++++)
47 (ALFGNALVFY; listed as Homo sapiens) [compound 47]	++++ (>75% = ++++)
22 (EGLFLLGCVK; listed as Homo sapiens) [compound 22]	+++ (>50 = +++)
86 (RVSGSGGGGAGK; listed as Homo sapiens) [compound 86]	+++ (>50 = +++)
138 (VSLSKMLKK; listed as Homo sapiens) [compound 138]	+++ (>50 = +++)
209 (KILDRVLSRY; listed as Homo sapiens) [compound 209]	++++ (>75% = ++++)
20 (LLPTVLIKK; listed as Homo sapiens) [compound 20]	+++ (>50 = +++)
68 (KGPMAGILAY; listed as Homo sapiens) [compound 68]	++ (>20% = ++)
93 (SVEGLSRRLK; listed as Homo sapiens) [compound 93]	+++ (>50 = +++)
253 (KLSLSHKK; listed as Homo sapiens) [compound 253]	+++ (>50 = +++)
185 (SIINFKPLTY; listed as Homo sapiens) [compound 185]	+++ (>50 = +++)

Substance	Peptide exchange (MHC class I binding score, peptide exchange yield)
66 (RVKEIVINK; listed as Homo sapiens) [compound 66]	+++ (>50 = +++)
10 (KARDLRTPK; listed as Homo sapiens) [compound 10]	+++ (>50 = +++)
125 (VVYDTMIEKF; listed as Homo sapiens) [compound 125]	++++ (>75% = ++++)
161 (MKTLPAMLGTGK; listed as Homo sapiens) [compound 161]	++ (>20% = ++)
40 (ALNDRFAGY; listed as Homo sapiens) [compound 40]	+++ (>50 = +++)
94 (GMTLLCEALK; listed as Homo sapiens) [compound 94]	++ (>20% = ++)
189 (KVFEEPEDFLK; listed as Homo sapiens) [compound 189]	++ (>20% = ++)
43 (TVYDSIWCNMK; listed as Homo sapiens) [compound 43]	++++ (>75% = ++++)
134 (SLLKPSGDYFK; listed as Homo sapiens) [compound 134]	+++ (>50 = +++)
254 (SVLDKLLFH; listed as Homo sapiens) [compound 254]	++++ (>75% = ++++)
226 (RVWLGKHYK; listed as Homo sapiens) [compound 226]	++++ (>75% = ++++)
78 (KTGTFVLYKS; listed as Homo sapiens) [compound 78]	+++ (>50 = +++)
13 (AVAFFVLPSK; listed as Homo sapiens) [compound 13]	++++ (>75% = ++++)
72 (KLYPQCLQK; listed as Homo sapiens) [compound 72]	++++ (>75% = ++++)
2 (KVMPKQTWK; listed as Homo sapiens) [compound 2]	+++ (>50 = +++)
101 (HMDEFKRTQK; listed as Homo sapiens) [compound 101]	+++ (>50 = +++)
95 (FLGLAFHPK; listed as Homo sapiens) [compound 95]	++ (>20% = ++)
146 (TLLSYELAFK; listed as Homo sapiens) [compound 146]	++++ (>75% = ++++)
3 (LLYGNGPGYVLK; listed as Homo sapiens) [compound 3]	++++ (>75% = ++++)
